Experimental data as given in the supplement of paper PMC10065799, “High-throughput profiling of sequence recognition by tyrosine kinases and SH2 domains using bacterial peptide display” (eLife, 2023).

Columns and labels:
c-Src SH2 = assay: SH2 binding enrichment of the phosphorylated peptide, bacterial display (enrichment ratio); higher = better substrate or ligand; peptides without Tyr show the background
SHP2-C SH2 = assay: as above
Grb2 SH2 = Grb2 SH2 (UniProt P62993); assay: as above
c-Src = assay: phosphorylation enrichment, bacterial display (enrichment ratio); higher = better substrate or ligand; peptides without Tyr show the background
AncSZ = assay: as above
Fyn = Fyn (UniProt P06241); assay: as above
FGFR3 = FGFR3 (UniProt P22607); assay: as above
Jak2 = Jak2 (UniProt O60674); assay: as above
c-Abl (mouse) = assay: as above
EPHB1 = EPHB1 (UniProt P54762); assay: as above
Fes = Fes (UniProt P07332); assay: as above
FGFR1 = FGFR1 (UniProt P11362); assay: as above
MERTK = MERTK (UniProt Q12866); assay: as above
Fer (mouse) = assay: as above
EPHB2 = EPHB2 (UniProt P29323); assay: as above
Hck = Hck (UniProt P08631); assay: as above
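Throughout, for SH2 binding enrichment of the phosphorylated peptide, bacterial display: peptide library displayed on the E. coli surface as eCPX fusions, selected cells deep-sequenced, score is each peptide's frequency after selection divided by its frequency in the input.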
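Throughout, for phosphorylation enrichment, bacterial display: 11-residue human phosphosite peptides and single-mutation variants displayed on the E. coli surface, counted by deep sequencing, each peptide's frequency after selection divided by its frequency in the unselected input library; frequency after pTyr selection over input frequency; kinase dosed for 20-30% of maximal phosphorylation in three min.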

Sequence of EPHB1 (P54762 whole entry, looked up): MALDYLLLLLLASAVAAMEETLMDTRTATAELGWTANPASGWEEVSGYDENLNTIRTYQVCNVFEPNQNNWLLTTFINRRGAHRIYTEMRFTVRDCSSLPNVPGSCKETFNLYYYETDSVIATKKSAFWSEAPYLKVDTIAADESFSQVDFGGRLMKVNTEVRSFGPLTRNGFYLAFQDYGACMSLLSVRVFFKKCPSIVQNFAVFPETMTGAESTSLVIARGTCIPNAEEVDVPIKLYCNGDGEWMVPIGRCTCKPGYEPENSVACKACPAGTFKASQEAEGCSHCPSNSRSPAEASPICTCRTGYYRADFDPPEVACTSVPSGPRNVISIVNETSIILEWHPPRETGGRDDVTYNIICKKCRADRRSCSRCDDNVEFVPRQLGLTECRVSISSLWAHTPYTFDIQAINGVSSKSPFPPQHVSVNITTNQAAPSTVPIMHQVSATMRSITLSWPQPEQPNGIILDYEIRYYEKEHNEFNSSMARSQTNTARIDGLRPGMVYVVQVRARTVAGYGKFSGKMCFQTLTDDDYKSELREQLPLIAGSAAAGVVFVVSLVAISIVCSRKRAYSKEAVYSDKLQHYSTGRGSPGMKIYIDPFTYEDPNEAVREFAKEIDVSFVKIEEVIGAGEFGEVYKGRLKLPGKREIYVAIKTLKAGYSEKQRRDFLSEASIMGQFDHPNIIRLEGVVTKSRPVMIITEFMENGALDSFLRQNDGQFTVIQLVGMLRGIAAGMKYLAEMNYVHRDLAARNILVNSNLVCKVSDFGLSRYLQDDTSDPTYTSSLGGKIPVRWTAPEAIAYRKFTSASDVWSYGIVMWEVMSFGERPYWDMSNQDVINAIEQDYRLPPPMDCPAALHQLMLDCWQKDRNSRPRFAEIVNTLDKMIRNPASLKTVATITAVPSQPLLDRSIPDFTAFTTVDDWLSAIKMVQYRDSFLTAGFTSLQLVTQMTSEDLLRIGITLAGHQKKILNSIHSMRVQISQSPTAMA
Sequence of FGFR1 (P11362 whole entry, looked up): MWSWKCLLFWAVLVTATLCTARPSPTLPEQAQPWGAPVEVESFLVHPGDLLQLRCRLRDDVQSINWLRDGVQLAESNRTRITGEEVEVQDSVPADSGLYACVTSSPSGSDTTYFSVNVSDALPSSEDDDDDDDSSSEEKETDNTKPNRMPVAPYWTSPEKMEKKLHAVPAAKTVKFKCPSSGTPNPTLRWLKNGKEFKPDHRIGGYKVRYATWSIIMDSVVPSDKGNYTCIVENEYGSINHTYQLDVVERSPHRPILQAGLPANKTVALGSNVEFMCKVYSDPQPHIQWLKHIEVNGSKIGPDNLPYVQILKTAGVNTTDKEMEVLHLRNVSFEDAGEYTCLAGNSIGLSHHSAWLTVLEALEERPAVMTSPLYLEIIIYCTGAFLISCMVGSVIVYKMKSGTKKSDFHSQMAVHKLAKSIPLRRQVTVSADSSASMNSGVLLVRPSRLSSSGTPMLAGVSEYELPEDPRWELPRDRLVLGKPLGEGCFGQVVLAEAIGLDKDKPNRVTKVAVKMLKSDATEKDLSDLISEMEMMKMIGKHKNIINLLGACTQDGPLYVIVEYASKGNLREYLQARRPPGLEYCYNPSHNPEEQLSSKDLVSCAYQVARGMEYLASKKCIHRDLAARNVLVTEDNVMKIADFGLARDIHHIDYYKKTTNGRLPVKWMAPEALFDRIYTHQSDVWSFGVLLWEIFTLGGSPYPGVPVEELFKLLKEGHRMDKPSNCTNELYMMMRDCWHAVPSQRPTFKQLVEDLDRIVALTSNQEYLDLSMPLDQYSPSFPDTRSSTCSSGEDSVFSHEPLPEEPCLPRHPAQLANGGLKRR
Sequence of FGFR3 (P22607 whole entry, looked up): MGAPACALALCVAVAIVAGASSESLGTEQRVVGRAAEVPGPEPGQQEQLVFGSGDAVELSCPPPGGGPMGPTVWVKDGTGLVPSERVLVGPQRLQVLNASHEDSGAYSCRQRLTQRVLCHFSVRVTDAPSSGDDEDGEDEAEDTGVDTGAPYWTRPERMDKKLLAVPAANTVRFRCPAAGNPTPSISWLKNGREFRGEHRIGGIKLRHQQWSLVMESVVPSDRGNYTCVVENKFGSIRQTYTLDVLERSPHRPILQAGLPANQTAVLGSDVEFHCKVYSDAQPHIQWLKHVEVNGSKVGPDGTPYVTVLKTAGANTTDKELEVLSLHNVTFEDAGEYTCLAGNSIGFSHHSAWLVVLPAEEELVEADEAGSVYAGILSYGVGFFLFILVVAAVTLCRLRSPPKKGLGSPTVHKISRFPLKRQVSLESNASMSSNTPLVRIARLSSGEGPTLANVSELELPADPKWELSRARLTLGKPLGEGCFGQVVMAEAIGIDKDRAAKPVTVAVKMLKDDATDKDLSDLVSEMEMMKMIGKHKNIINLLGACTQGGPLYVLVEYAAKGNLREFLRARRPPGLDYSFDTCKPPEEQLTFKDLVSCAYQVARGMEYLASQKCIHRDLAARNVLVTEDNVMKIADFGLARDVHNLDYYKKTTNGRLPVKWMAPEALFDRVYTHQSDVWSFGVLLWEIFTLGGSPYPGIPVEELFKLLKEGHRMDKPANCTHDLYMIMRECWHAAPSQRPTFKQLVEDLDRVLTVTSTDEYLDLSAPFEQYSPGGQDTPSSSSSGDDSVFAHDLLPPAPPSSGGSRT
Sequence of Fyn (P06241 whole entry, looked up): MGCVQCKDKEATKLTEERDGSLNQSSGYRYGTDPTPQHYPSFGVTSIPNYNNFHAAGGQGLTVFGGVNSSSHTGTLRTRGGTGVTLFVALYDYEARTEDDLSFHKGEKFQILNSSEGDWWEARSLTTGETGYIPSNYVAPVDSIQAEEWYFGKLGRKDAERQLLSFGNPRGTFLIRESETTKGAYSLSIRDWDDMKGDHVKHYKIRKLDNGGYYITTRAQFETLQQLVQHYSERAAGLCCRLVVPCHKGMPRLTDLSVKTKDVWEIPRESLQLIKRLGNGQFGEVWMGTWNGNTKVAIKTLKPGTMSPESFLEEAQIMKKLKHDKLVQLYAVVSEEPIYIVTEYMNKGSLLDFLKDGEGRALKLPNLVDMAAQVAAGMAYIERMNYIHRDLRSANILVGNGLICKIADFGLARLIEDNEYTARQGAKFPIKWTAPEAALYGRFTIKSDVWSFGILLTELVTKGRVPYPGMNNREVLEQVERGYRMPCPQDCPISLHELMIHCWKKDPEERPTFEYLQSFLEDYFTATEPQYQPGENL
Sequence of Fes (P07332 whole entry, looked up): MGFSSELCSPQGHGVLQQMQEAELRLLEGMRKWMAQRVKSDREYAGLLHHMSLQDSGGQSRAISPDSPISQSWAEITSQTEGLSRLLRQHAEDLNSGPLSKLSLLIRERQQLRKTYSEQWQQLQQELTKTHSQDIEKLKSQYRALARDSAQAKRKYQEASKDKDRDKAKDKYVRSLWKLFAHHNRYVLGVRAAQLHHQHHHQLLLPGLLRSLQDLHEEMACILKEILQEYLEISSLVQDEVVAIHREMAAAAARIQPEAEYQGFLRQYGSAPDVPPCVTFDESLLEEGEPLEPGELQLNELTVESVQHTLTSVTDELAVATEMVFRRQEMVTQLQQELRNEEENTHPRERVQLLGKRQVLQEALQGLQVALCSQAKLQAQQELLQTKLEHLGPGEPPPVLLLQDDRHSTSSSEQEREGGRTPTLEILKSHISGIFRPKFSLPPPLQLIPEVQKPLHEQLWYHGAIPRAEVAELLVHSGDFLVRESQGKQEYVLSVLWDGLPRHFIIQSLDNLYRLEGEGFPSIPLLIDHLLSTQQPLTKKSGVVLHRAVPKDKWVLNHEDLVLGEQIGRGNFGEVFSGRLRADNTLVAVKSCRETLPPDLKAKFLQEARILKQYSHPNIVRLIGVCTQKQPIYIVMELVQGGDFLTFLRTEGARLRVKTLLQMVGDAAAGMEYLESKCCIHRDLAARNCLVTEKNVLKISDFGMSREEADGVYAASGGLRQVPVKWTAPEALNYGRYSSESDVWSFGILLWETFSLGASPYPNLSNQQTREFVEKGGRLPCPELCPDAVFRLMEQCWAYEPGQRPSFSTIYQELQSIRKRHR
Sequence of Jak2 (O60674 whole entry, looked up): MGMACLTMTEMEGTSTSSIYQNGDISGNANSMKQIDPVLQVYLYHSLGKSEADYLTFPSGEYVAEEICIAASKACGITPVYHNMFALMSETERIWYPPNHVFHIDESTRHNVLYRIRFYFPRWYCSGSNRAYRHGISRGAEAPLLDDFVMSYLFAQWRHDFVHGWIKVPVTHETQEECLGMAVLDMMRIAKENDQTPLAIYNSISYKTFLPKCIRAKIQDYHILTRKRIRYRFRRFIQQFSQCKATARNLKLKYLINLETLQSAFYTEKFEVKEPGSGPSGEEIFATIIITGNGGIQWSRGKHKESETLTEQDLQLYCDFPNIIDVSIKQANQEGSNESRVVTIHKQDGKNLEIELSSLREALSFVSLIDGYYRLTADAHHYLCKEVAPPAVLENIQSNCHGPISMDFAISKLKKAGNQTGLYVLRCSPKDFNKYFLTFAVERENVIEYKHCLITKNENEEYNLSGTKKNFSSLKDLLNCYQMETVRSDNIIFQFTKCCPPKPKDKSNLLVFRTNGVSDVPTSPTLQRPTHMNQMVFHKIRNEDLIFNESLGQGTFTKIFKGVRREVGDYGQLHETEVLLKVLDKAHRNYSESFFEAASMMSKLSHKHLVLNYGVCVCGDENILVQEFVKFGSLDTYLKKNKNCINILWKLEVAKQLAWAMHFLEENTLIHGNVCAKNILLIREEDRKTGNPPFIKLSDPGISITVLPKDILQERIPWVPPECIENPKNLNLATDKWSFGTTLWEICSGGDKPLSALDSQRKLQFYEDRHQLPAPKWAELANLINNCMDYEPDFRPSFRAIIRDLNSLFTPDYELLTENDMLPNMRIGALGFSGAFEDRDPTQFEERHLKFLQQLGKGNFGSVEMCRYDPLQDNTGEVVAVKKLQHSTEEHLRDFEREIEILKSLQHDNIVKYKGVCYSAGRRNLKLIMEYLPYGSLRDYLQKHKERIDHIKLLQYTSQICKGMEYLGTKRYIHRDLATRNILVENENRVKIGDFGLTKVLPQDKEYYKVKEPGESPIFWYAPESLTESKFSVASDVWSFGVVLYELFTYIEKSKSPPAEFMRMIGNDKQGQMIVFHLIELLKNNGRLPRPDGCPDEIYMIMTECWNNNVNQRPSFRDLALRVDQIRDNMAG

| Sequence | SH2 binding enrichment (c-Src SH2) | SH2 binding enrichment (SHP2-C SH2) | SH2 binding enrichment (Grb2 SH2) | phosphorylation enrichment (c-Src) | phosphorylation enrichment (AncSZ) | phosphorylation enrichment (Fyn) | phosphorylation enrichment (FGFR3) | phosphorylation enrichment (Jak2) | phosphorylation enrichment (c-Abl (mouse)) | phosphorylation enrichment (EPHB1) | phosphorylation enrichment (Fes) | phosphorylation enrichment (FGFR1) | phosphorylation enrichment (MERTK) | phosphorylation enrichment (Fer (mouse)) | phosphorylation enrichment (EPHB2) | phosphorylation enrichment (Hck) |
| --- | --- | --- | --- | --- | --- | --- | --- | --- | --- | --- | --- | --- | --- | --- | --- | --- |
| ETGEPYRLSPE [EIF4G1_Y311] | 0.572 | 0.75 | 0.883 | 0.527 | 1.19 | 0.505 | 0.783 | 1 | 0.893 | 0.733 | 1.15 | 0.58 | 0.503 | 0.635 | 0.68 | 0.631 |
| FADGVYQALEE [DUOX2_Y70_YF] | 0.75 | 0.882 | 1.15 | 3.81 | 1.49 | 3.65 | 0.666 | 0.979 | 0.749 | 1.97 | 1.3 | 0.696 | 1.38 | 1.1 | 1.5 | 3.3 |
| FAELMYTGFWH [ASS1_Y322_V321M] | 0.538 | 0.816 | 0.918 | 6.43 | 2.17 | 6.85 | 2.02 | 2.02 | 3.16 | 3.52 | 1.67 | 2.32 | 7.12 | 5.42 | 4.76 | 4.7 |
| FARNCYVAGQF [G6PD_Y107_S106C_YF] | 0.437 | 0.383 | 0.742 | 0.507 | 0.983 | 0.387 | 0.553 | 0.743 | 0.714 | 0.505 | 0.938 | 0.461 | 0.363 | 0.417 | 0.487 | 0.409 |
| FCRITYDIFPF [INTS13_Y67_M66T_YF] | 0.485 | 0.853 | 1.03 | 2.36 | 1.66 | 1.31 | 1.05 | 1.29 | 1.12 | 2.38 | 1.6 | 0.514 | 2.2 | 0.594 | 3.05 | 2.62 |
| FETDFYRKGGK [INSR_Y1190_YF] | 0.502 | 0.776 | 0.875 | 0.482 | 0.629 | 0.381 | 0.472 | 0.6 | 0.539 | 0.621 | 0.758 | 0.435 | 0.468 | 0.319 | 0.639 | 0.418 |
| FFCRWYRNRKS [EREG_Y144_YF] | 0.516 | 0.858 | 0.705 | 0.51 | 0.442 | 0.563 | 0.409 | 0.433 | 0.421 | 0.421 | 0.453 | 0.463 | 0.433 | 0.312 | 0.514 | 0.326 |
| FGCTFYNQAIM [MCCC2_Y196_R193C] | 0.534 | 0.608 | 0.685 | 0.47 | 1.4 | 0.472 | 1.04 | 1.32 | 0.968 | 0.825 | 1.54 | 0.529 | 0.365 | 0.647 | 0.777 | 0.597 |
| FGEFRYRSVIK [CFTR_Y517_D513G_YF] | 0.423 | 0.426 | 0.567 | 0.426 | 0.728 | 0.409 | 0.541 | 0.744 | 0.574 | 0.558 | 0.891 | 0.44 | 0.409 | 0.396 | 0.559 | 0.565 |
| FGMQLYQNFMH [GRB14_Y347_YF] | 1.22 | 1.34 | 2.83 | 3.67 | 1.06 | 2.84 | 0.772 | 0.971 | 0.777 | 3.53 | 1.04 | 0.544 | 2.89 | 5.17 | 2.41 | 3.03 |
| FISVGYVDDTL [HLA-B_Y51_Q56L] | 0.728 | 0.896 | 1.05 | 0.557 | 1.12 | 0.486 | 0.801 | 1.03 | 0.772 | 0.738 | 1.21 | 0.572 | 0.436 | 0.652 | 0.736 | 0.485 |
| FKDYFYCWNTF [AICDA_Y146] | 0.474 | 0.662 | 0.878 | 1.41 | 2.04 | 0.652 | 7.02 | 3.71 | 1.22 | 4.05 | 1.34 | 8.79 | 2.8 | 1.46 | 2.87 | 0.557 |
| FLRKEYGGVNV [CBR3_Y81_L84V] | 0.458 | 0.698 | 0.984 | 0.578 | 0.644 | 0.452 | 0.495 | 0.598 | 0.612 | 0.391 | 0.916 | 0.416 | 0.471 | 0.475 | 0.4 | 0.425 |
| FNNPAYFVLEG [INPPL1_Y986_YF] | 2.06 | 0.953 | 1.01 | 0.875 | 1.25 | 0.679 | 5.18 | 4.57 | 0.816 | 0.621 | 1.09 | 7.65 | 3.7 | 0.501 | 0.588 | 0.578 |
| FPRAWCRRSIA [KIAA1109_Y4272_Y4272C] | 0.464 | 0.4 | 0.759 | 0.523 | 0.908 | 0.557 | 0.441 | 0.588 | 0.641 | 0.519 | 0.686 | 0.48 | 0.562 | 0.455 | 0.484 | 0.466 |
| FQASFYRRGDR [LTK_Y677_R673Q_YF] | 0.295 | 0.38 | 0.411 | 0.525 | 0.717 | 0.55 | 0.523 | 0.441 | 0.647 | 0.443 | 0.688 | 0.532 | 0.511 | 0.495 | 0.486 | 0.501 |
| FRPHLYGTPSR [ADGRE2_Y670_S665F] | 1.77 | 1.65 | 1.98 | 0.572 | 0.682 | 0.546 | 0.511 | 0.611 | 0.718 | 0.481 | 0.842 | 0.747 | 0.513 | 0.945 | 0.458 | 0.948 |
| FSGIFYKPESL [L2HGDH_Y103_H98Y_YF] | 0.56 | 1.27 | 1.17 | 0.611 | 0.968 | 0.438 | 0.673 | 0.935 | 0.81 | 0.5 | 1.03 | 0.436 | 0.431 | 0.471 | 0.5 | 0.393 |
| FSPPFYHRNCM [HGD_Y334_R330S_YF] | 0.633 | 0.818 | 0.981 | 0.623 | 0.931 | 0.377 | 0.632 | 0.971 | 0.767 | 0.483 | 0.89 | 0.513 | 0.535 | 0.465 | 0.545 | 0.457 |

Second part, led by results:

| SH2 binding enrichment (c-Src SH2) | SH2 binding enrichment (SHP2-C SH2) | SH2 binding enrichment (Grb2 SH2) | Sequence | phosphorylation enrichment (c-Src) | phosphorylation enrichment (AncSZ) | phosphorylation enrichment (Fyn) | phosphorylation enrichment (FGFR3) | phosphorylation enrichment (Jak2) | phosphorylation enrichment (c-Abl (mouse)) | phosphorylation enrichment (EPHB1) | phosphorylation enrichment (Fes) | phosphorylation enrichment (FGFR1) | phosphorylation enrichment (MERTK) | phosphorylation enrichment (Fer (mouse)) | phosphorylation enrichment (EPHB2) | phosphorylation enrichment (Hck) |
| --- | --- | --- | --- | --- | --- | --- | --- | --- | --- | --- | --- | --- | --- | --- | --- | --- |
| 0.475 | 0.719 | 0.867 | EVDELYREAPI [MYL12B_Y143] | 0.52 | 1.27 | 0.654 | 1.11 | 1.29 | 0.962 | 0.784 | 1.39 | 0.86 | 0.598 | 0.62 | 0.654 | 0.705 |
| 0.561 | 0.666 | 0.829 | EWKQNYEESQS [MYH7_Y1460_K1459N] | 0.461 | 1.16 | 0.481 | 0.692 | 1.32 | 0.967 | 0.542 | 1.25 | 0.546 | 0.497 | 0.792 | 0.664 | 0.605 |
| 2.15 | 0.787 | 0.768 | EYGFRYELVQY [UGGT2_Y1289] | 0.584 | 1.83 | 0.558 | 1.17 | 1.62 | 0.932 | 0.986 | 1.65 | 0.872 | 0.631 | 3.36 | 0.879 | 0.674 |
| 0.547 | 0.872 | 0.888 | FADIAYNFRHR [PAH_Y166_G171R_YF] | 0.415 | 0.577 | 0.407 | 0.44 | 0.487 | 0.537 | 0.343 | 0.652 | 0.317 | 0.405 | 0.348 | 0.425 | 0.374 |
| 0.626 | 0.939 | 0.939 | FDDIAYIQKTL [PIK3CA_Y1021_R1023Q] | 0.485 | 0.832 | 0.479 | 0.6 | 0.952 | 0.591 | 0.425 | 0.819 | 0.503 | 0.529 | 0.352 | 0.68 | 0.488 |
| 0.893 | 0.493 | 0.817 | FGAHNYHPLPV [OAT_Y55_YF] | 0.538 | 1.64 | 0.468 | 3.33 | 0.58 | 0.562 | 0.573 | 0.535 | 6.41 | 1.04 | 0.35 | 0.677 | 0.606 |
| 0.653 | 0.872 | 1.11 | FGVVGYLAIMF [RNF175_Y155] | 0.443 | 1.04 | 0.519 | 0.819 | 1.45 | 1.37 | 0.795 | 1.44 | 0.474 | 0.532 | 0.484 | 0.579 | 0.655 |
| 1.34 | 1.57 | 1.11 | FHLLPYTVRAM [PARS2_Y93_YF] | 0.711 | 0.8 | 0.446 | 0.551 | 0.691 | 0.546 | 0.581 | 0.971 | 0.564 | 0.438 | 0.514 | 0.633 | 0.501 |
| 0.542 | 0.821 | 1.13 | FPKDVYVDSKD [NDUFAF4_Y69_L65P] | 0.416 | 0.868 | 0.409 | 0.59 | 0.769 | 0.543 | 0.38 | 0.839 | 0.588 | 0.377 | 0.367 | 0.36 | 0.444 |
| 0.565 | 0.787 | 0.911 | FRDMDYRSFPH [RBM10_Y41_R46H_YF] | 0.436 | 0.55 | 0.419 | 0.449 | 0.667 | 0.549 | 0.442 | 0.698 | 0.577 | 0.385 | 0.407 | 0.388 | 0.314 |
| 1.24 | 0.564 | 0.672 | FRSSLYSLMET [MYO5C_Y633_L634S] | 4.03 | 1.12 | 4.25 | 0.947 | 0.77 | 0.629 | 4.17 | 1.16 | 0.898 | 12.4 | 9.51 | 1.84 | 4.03 |
| 0.244 | 0.472 | 0.675 | FSGQVYRQRRK [TH_Y230_D227G] | 1.13 | 0.855 | 0.774 | 0.64 | 0.769 | 0.789 | 0.604 | 0.697 | 0.546 | 1 | 0.582 | 0.772 | 0.718 |
| 0.626 | 1.05 | 1 | FTHSDYQFGQR [PKP2_Y166_S169G_YF] | 0.457 | 0.697 | 0.443 | 0.474 | 0.583 | 0.553 | 0.389 | 0.687 | 0.465 | 0.469 | 0.453 | 0.471 | 0.518 |
| 2.61 | 0.723 | 0.756 | FTNRSYDLDFD [MYC_Y12_N11S_YF] | 0.499 | 0.978 | 0.55 | 0.708 | 0.922 | 0.77 | 0.505 | 1.13 | 0.685 | 0.422 | 0.476 | 0.58 | 0.64 |
